In the supplement of paper PMC10065799, “High-throughput profiling of sequence recognition by tyrosine kinases and SH2 domains using bacterial peptide display” (eLife, 2023):

Assays:
Grb2 SH2 = Grb2 SH2 (UniProt P62993); test: SH2 binding enrichment of the phosphorylated peptide, bacterial display (enrichment ratio); higher = better substrate or ligand; peptides without Tyr show the background
SHP2-C SH2 = test: as above
c-Src SH2 = test: as above
Fer (mouse) = test: phosphorylation enrichment, bacterial display (enrichment ratio); higher = better substrate or ligand; peptides without Tyr show the background
EPHB1 = EPHB1 (UniProt P54762); test: as above
FGFR1 = FGFR1 (UniProt P11362); test: as above
Fyn = Fyn (UniProt P06241); test: as above
EPHB2 = EPHB2 (UniProt P29323); test: as above
c-Abl (mouse) = test: as above
Hck = Hck (UniProt P08631); test: as above
c-Src = test: as above
AncSZ = test: as above
MERTK = MERTK (UniProt Q12866); test: as above
FGFR3 = FGFR3 (UniProt P22607); test: as above
Fes = Fes (UniProt P07332); test: as above
Jak2 = Jak2 (UniProt O60674); test: as above
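Throughout, for SH2 binding enrichment of the phosphorylated peptide, bacterial display: peptide library displayed on the E. coli surface as eCPX fusions, selected cells deep-sequenced, score is each peptide's frequency after selection divided by its frequency in the input.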
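Throughout, for phosphorylation enrichment, bacterial display: 11-residue human phosphosite peptides and single-mutation variants displayed on the E. coli surface, counted by deep sequencing, each peptide's frequency after selection divided by its frequency in the unselected input library; frequency after pTyr selection over input frequency; kinase dosed for 20-30% of maximal phosphorylation in three min.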

Sequence of MERTK (Q12866 whole entry, looked up): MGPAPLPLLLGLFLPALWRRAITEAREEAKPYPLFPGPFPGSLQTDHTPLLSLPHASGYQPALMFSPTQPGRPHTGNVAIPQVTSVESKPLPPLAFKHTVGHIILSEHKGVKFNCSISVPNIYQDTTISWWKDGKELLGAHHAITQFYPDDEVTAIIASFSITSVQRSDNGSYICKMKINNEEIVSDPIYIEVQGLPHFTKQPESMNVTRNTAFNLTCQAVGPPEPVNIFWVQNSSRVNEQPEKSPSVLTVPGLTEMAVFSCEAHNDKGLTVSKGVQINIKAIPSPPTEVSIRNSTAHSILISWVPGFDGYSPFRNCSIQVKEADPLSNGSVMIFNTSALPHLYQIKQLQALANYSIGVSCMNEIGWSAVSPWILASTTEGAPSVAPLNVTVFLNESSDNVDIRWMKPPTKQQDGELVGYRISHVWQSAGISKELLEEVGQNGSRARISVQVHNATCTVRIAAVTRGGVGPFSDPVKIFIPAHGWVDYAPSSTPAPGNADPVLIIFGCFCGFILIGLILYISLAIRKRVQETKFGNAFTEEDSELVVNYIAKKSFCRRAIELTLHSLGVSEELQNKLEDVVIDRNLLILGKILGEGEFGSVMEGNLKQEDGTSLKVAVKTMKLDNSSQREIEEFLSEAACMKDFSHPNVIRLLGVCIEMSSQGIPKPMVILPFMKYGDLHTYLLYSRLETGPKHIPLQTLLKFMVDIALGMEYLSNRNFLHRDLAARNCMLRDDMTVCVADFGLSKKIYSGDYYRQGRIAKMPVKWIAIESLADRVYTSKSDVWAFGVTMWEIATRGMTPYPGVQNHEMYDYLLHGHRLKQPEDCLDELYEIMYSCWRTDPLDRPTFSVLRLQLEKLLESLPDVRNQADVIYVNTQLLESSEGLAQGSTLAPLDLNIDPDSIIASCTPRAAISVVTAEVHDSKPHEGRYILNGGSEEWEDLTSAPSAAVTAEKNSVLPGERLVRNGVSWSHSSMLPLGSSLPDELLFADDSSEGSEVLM
Sequence of Fes (P07332 whole entry, looked up): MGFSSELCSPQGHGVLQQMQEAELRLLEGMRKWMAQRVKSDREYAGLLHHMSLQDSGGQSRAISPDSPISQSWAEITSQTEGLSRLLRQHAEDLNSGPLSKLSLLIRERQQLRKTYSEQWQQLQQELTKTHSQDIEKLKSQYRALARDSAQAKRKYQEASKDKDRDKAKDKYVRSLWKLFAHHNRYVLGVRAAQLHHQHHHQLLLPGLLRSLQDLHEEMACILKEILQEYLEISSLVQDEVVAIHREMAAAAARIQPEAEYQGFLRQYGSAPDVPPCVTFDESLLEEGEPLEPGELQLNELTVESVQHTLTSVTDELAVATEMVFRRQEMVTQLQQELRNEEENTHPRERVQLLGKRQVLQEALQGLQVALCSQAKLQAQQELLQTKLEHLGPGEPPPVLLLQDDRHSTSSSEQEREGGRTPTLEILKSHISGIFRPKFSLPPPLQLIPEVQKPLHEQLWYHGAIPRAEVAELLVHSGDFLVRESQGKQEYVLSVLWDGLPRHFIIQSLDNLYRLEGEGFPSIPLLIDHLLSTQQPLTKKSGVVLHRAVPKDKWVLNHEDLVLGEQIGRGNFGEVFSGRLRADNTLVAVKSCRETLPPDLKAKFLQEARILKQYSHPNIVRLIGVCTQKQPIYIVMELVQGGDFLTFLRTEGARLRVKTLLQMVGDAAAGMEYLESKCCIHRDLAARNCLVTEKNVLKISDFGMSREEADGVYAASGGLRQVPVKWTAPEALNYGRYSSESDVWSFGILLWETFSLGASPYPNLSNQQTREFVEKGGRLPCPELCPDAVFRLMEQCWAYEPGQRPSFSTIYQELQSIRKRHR
Sequence of Fyn (P06241 whole entry, looked up): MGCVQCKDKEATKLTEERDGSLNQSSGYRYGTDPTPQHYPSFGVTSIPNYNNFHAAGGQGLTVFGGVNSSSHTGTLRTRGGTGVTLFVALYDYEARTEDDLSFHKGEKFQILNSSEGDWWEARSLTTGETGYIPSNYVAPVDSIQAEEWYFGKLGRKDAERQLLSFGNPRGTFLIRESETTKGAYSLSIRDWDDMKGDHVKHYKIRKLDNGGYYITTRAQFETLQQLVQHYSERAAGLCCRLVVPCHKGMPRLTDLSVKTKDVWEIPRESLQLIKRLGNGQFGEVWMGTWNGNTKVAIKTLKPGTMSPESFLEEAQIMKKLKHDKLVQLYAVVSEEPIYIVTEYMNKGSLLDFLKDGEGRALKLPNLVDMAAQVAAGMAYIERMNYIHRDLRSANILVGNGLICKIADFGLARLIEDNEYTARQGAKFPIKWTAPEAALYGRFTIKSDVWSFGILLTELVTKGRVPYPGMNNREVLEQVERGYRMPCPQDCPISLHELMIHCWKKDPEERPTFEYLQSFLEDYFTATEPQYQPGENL
Sequence of Grb2 SH2 (P62993 whole entry, looked up): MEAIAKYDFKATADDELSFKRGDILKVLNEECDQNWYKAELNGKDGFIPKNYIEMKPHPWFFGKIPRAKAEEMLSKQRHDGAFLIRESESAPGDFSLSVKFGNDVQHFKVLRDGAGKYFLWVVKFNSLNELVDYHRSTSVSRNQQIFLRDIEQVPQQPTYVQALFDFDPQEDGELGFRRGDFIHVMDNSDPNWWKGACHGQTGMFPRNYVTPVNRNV
Sequence of EPHB1 (P54762 whole entry, looked up): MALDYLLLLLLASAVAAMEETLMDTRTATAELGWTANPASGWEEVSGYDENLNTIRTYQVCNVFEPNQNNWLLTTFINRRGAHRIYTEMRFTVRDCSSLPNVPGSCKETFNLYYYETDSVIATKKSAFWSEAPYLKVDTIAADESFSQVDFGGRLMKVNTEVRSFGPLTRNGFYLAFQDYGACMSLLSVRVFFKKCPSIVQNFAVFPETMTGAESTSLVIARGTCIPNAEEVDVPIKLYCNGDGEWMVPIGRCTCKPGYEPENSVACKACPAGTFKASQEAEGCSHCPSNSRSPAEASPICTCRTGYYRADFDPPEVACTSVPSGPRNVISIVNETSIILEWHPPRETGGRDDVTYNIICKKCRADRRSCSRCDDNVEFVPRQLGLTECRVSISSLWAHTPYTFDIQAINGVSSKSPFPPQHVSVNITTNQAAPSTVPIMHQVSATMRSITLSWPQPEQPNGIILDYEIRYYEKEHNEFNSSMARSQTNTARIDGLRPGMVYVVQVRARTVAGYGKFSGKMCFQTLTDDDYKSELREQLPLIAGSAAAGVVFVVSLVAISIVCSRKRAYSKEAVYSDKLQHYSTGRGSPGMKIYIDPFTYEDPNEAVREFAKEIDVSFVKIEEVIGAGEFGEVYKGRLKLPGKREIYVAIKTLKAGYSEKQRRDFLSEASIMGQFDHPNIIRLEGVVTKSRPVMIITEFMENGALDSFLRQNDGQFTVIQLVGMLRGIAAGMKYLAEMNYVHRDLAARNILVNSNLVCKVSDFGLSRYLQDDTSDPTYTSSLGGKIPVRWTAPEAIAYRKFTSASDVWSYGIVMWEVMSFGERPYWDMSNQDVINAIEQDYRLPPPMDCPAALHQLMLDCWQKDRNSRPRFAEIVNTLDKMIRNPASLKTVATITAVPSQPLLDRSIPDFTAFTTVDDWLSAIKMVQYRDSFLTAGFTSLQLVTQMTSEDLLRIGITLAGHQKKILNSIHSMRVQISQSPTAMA
Sequence of Jak2 (O60674 whole entry, looked up, the tested form may be a part): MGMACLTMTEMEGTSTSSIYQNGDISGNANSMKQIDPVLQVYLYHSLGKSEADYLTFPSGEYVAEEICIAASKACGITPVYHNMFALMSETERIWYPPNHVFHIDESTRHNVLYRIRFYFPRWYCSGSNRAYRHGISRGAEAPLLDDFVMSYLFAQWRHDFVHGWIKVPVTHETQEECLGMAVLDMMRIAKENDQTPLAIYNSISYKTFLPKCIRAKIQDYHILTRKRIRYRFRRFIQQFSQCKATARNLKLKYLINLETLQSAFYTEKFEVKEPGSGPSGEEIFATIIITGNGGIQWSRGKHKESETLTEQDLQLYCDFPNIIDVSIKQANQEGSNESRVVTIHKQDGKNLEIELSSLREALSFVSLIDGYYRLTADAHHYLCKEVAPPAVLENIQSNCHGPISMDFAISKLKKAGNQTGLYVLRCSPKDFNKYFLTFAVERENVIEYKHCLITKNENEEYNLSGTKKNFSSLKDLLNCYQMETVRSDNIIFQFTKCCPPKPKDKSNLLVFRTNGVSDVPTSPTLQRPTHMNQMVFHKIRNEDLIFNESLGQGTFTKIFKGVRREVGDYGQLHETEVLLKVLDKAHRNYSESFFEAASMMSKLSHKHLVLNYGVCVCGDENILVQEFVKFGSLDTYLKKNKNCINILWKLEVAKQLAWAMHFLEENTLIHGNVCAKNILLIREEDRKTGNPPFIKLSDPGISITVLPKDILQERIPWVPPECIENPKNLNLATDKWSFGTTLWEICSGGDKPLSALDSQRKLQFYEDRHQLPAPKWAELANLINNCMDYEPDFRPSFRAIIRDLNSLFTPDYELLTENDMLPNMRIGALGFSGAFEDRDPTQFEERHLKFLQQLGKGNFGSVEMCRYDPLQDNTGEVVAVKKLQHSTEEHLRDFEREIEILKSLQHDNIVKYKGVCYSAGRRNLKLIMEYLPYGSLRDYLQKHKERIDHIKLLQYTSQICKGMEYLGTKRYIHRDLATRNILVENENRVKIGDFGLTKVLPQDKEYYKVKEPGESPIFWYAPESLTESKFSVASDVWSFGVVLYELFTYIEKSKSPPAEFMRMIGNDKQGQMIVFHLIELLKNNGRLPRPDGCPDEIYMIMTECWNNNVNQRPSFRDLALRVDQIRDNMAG

| Sequence | SH2 binding enrichment (Grb2 SH2) | SH2 binding enrichment (SHP2-C SH2) | SH2 binding enrichment (c-Src SH2) | phosphorylation enrichment (Fer (mouse)) | phosphorylation enrichment (EPHB1) | phosphorylation enrichment (FGFR1) | phosphorylation enrichment (Fyn) | phosphorylation enrichment (EPHB2) | phosphorylation enrichment (c-Abl (mouse)) | phosphorylation enrichment (Hck) | phosphorylation enrichment (c-Src) | phosphorylation enrichment (AncSZ) | phosphorylation enrichment (MERTK) | phosphorylation enrichment (FGFR3) | phosphorylation enrichment (Fes) | phosphorylation enrichment (Jak2) |
| --- | --- | --- | --- | --- | --- | --- | --- | --- | --- | --- | --- | --- | --- | --- | --- | --- |
| RLLVIYPWTQR [HBG2_Y36_V35I] | 1.97 | 1.49 | 1.31 | 0.498 | 0.836 | 0.594 | 0.793 | 0.639 | 0.907 | 0.635 | 0.588 | 1.98 | 0.58 | 1.03 | 1.46 | 1.12 |
| RLLVVYPWTQG [HBG2_Y36_R41G] | 2.61 | 1.82 | 1.66 | 0.289 | 0.542 | 0.603 | 0.499 | 0.378 | 0.593 | 0.416 | 0.305 | 0.894 | 0.27 | 0.58 | 0.932 | 0.987 |
| RLNAIYQNNLT [GSR_Y158] | 5.31 | 0.986 | 0.796 | 1.06 | 0.632 | 0.502 | 0.772 | 0.609 | 0.539 | 1.25 | 1.08 | 0.813 | 0.414 | 0.665 | 0.75 | 0.565 |
| RLQAAYNLVKR [PFKM_Y103_R100Q] | 1.86 | 2.08 | 1.51 | 0.494 | 0.59 | 0.525 | 0.731 | 0.388 | 0.853 | 0.633 | 0.526 | 0.787 | 0.541 | 0.489 | 1.19 | 0.866 |
| RMSSSYPTGLA [ADM_Y52] | 0.714 | 0.406 | 0.422 | 0.502 | 0.37 | 0.562 | 0.525 | 0.447 | 0.518 | 0.509 | 0.334 | 0.525 | 0.433 | 0.613 | 0.542 | 0.473 |
| RNFDTYTAGLS [RHBDD1_Y264_YF] | 0.664 | 0.514 | 0.428 | 0.394 | 1.9 | 0.407 | 0.9 | 3.55 | 0.436 | 3.7 | 1.15 | 0.62 | 0.452 | 0.355 | 0.802 | 0.511 |
| RNGDRYFKEIV [DCX_Y64_G67E] | 0.749 | 0.588 | 0.393 | 0.472 | 0.55 | 0.703 | 0.572 | 0.626 | 0.548 | 0.559 | 0.559 | 0.546 | 0.514 | 1.51 | 0.705 | 0.469 |
| RNIQQYNSFVS [PRKAR1A_Y373] | 0.782 | 0.683 | 0.602 | 0.534 | 0.391 | 0.573 | 0.648 | 0.611 | 0.986 | 0.64 | 0.589 | 0.768 | 0.457 | 0.787 | 0.743 | 0.667 |
| RNLLIYTEFGK [HGD_Y166_G161R] | 0.94 | 0.194 | 0.457 | 0.827 | 2.86 | 0.583 | 8.15 | 1.12 | 2.48 | 5.2 | 4.93 | 1.4 | 5.3 | 0.945 | 1.22 | 0.997 |
| RNNTEYVRDIG [MUSK_Y577_I575T] | 0.834 | 0.645 | 0.745 | 0.302 | 0.422 | 0.418 | 0.496 | 0.41 | 0.479 | 0.428 | 0.328 | 0.717 | 0.33 | 0.427 | 0.582 | 0.364 |
| RPDSPYSRPHD [DOK2_Y271] | 0.729 | 0.422 | 1.29 | 0.379 | 0.258 | 0.364 | 0.317 | 0.49 | 0.419 | 0.367 | 0.372 | 0.71 | 0.369 | 0.485 | 0.519 | 0.436 |
| RPFVFYFSFLL [PTEN_Y177_R173P_YF] | 2.27 | 1.02 | 0.918 | 0.587 | 0.838 | 0.589 | 0.76 | 0.483 | 1.29 | 0.867 | 0.982 | 1.29 | 0.641 | 0.835 | 1.29 | 1.55 |
| RQGQAYRGQRV [TSHR_Y706_A703G] | 0.552 | 0.334 | 0.489 | 0.649 | 0.338 | 0.452 | 0.509 | 0.339 | 0.458 | 0.47 | 0.453 | 0.718 | 0.454 | 0.447 | 0.805 | 0.48 |
| RQNNSYTCFTA [SLC20A2_Y386_R382Q_YF] | 0.85 | 0.998 | 0.923 | 0.751 | 0.819 | 0.663 | 0.537 | 0.658 | 0.802 | 0.544 | 0.712 | 1.04 | 0.938 | 0.904 | 0.898 | 0.951 |
| RQNQEYEILLD [KRT39_Y379] | 1.19 | 1.57 | 1.21 | 0.595 | 1.35 | 0.622 | 0.634 | 1.21 | 1.04 | 0.705 | 0.733 | 1.38 | 0.63 | 0.678 | 1.6 | 1.67 |
| RRGLLYDSDEE [MCM2_Y137] | 0.661 | 0.81 | 0.606 | 1.08 | 0.796 | 0.898 | 1.29 | 0.642 | 0.59 | 1.16 | 0.763 | 1.25 | 0.855 | 1.3 | 1.13 | 0.77 |
